Reference: patent US20210380679A1 (INHIBRX BIOSCIENCES, published 2021)

T1: human DLL3 (Delta-like ligand 3) (human, UniProt Q9NYJ7 27-618)
T1 construct: endogenous on SHP-77 cells; also called cell-surface DLL3
T1 sequence: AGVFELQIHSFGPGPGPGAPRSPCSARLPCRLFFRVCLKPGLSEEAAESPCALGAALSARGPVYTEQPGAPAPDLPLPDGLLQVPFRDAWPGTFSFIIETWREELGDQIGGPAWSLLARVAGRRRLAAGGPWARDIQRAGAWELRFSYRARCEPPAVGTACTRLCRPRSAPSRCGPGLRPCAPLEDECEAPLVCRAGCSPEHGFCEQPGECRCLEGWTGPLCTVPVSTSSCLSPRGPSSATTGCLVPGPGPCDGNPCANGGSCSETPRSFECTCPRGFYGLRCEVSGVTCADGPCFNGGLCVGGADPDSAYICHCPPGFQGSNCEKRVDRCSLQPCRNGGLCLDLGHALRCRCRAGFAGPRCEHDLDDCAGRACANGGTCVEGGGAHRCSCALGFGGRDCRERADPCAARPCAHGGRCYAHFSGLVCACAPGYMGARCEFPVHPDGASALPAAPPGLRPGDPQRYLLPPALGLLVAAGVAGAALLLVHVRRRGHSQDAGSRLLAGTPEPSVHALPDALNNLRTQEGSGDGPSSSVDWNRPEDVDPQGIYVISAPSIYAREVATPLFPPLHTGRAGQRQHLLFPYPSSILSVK


What was measured:
[1] = target: T2, CD3 on the surface of T cells (human, UniProt P07766 23-207); assay: flow cytometry, primary human T cells
T2 construct: whole, on cells; multi-chain complex; also called CD3 epsilon
Procedure: (§1) Binding of exemplary DLL3-targeting constrained CD3 engaging constructs of the disclosure, referred to herein as cx4720, cx3715, cx4422, cx3708, cx4052, cx3985, cx4059, cx4087, cx4088, cx4895, cx3991, cx3711, cx4887, cx4896, cx4899, cx4406, cx3707, cx3710, cx4888 and cx4890, to CD3 on the surface of primary T cells was assessed via flow cytometry (SONY SA3800 spectral analyzer) using T-cell that were negatively enriched from PBMCs isolated from healthy human donor leukopaks. Representative DLL3-targeting constrained CD3 engaging constructs were assessed for binding to T cells and DLL3 expressing cells (SHP-77). Bound cx4720, cx3715, cx4422, cx3708, cx4052, cx3985, cx4059, cx4087, cx4088, cx4895, cx3991, cx3711, cx4887, cx4896, cx4899, cx4406, cx3707, cx3710, cx4888 and cx4890 was detected with fluorophore-conjugated secondary antibodies specific for the human Fc and binding was measured by flow cytometry. Cells incubated with secondary antibody only served as negative controls.
(§2) Table E4 summarizes the affinity of exemplary molecules for DLL3 or CD3, as determined from flow cytometry, in these studies.

[2] = target: T1, human DLL3 (Delta-like ligand 3); assay: flow cytometry, SHP-77 cells
Procedure: as §1, §2

T2 sequence (P07766 23-207): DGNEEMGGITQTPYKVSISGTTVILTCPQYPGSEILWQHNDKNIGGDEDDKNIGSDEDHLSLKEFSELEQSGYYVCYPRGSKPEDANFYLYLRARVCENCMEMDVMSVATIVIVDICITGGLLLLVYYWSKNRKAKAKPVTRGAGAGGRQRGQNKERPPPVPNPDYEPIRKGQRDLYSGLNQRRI

Row | Binder | Kd [1] | Kd [2]
1 | cx4896 (bispecific antibody, also carries a 41BB sdAb) chain 1: EVQLVESGGGEVQPGGSLRLSCAASGSIFSINAMGWYRQAPGKQRELVAGFTGDTNTIYAESVKGRFTISRDNAKNTVYLQMSSLRAEDTAVYYCAADVQLFSRDYEFYWGQGTLVTVKPDKTHTCPPCPAPGGPSVFLFPPKPKDTLMISRTPEVTCVVVDVSHEDPEVKFNWYVDGVEVHNAKTKPREEQYNSTYRVVSVLTVLHQDWLNGKEYKCKVSNKALPAPIEKTISKAKGQPREPQVYTLPPCRDELTKNQVSLWCLVKGFYPSDIAVEWESNGQPENNYKTTPPVLDSDGSFFLYSKLTVDKSRWQQGNVFSCSVMHEALHNHYTQKSLSLSPTGGGGGSGGGGGSGGGGGSEVQLVESGGGLVQPGGSLRLSCAASGFTFNTYAMNWVRQAPGKCLEWVARIRSKYNNYATYYADSVKGRFTISRDDAKNTLYLQMSSLRAEDTAVYYCVRHGNFGNSYVSWFAYWGQGTLVTVKPEVQLVESGGGEVQPGGSLRLSCGPSEIITSDKSVGWWRQAPGKQRNLVAGISNVGSTNYAQSVKGRFTISRDNAKNTLYLQMSSLRAEDTAVYYCYARDFENEYWGQGTLVTVKP chain 2: DKTHTCPPCPAPGGPSVFLFPPKPKDTLMISRTPEVTCVVVDVSHEDPEVKFNWYVDGVEVHNAKTKPREEQYNSTYRVVSVLTVLHQDWLNGKEYKCKVSNKALPAPIEKTISKAKGQPREPQVCTLPPSRDELTKNQVSLSCAVKGFYPSDIAVEWESNGQPENNYKTTPPVLDSDGSFFLVSKLTVDKSRWQQGNVFSCSVMHEALHNRYTQKSLSLSPTGGGGGSGGGGGSGGGGGSQAVVTQEPSLTVSPGGTVTLTCGSSTGAVTTSNYANWVQQKPGQAFRGLIGGTNKRAPGVPARFSGSLLGGKAALTISGAQPEDEADYYCALWYSNHWVFGCGTKLEIKEVQLLESGGGEVQPGGSLRLSCAASGFSFSINAMGWYRQAPGKRREFVAAIESGRNTVYAESVKGRFTISRDNAKNTVYLQMSSLRAEDTAVYYCGLLKGNRVVSPSVAYWGQGTLVTVKP | > 200 nM | 0.339 nM
2 | cx4720 (bispecific antibody, also carries a 41BB sdAb) chain 1: EVQLVQSGGGLVQAGGSLRLSCAASGSILSINAMGWYRQPPGKQREMVAGFTGDGNTIYADSVKGRFTISRDNAKNTVYLQMNSLKPEDTAVYYCAADVQLFSRDYEFYWGQGTQVTVKPDKTHTCPPCPAPGGPSVFLFPPKPKDTLMISRTPEVTCVVVDVSHEDPEVKFNWYVDGVEVHNAKTKPREEQYNSTYRVVSVLTVLHQDWLNGKEYKCKVSNKALPAPIEKTISKAKGQPREPQVYTLPPCRDELTKNQVSLWCLVKGFYPSDIAVEWESNGQPENNYKTTPPVLDSDGSFFLYSKLTVDKSRWQQGNVFSCSVMHEALHNHYTQKSLSLSPTGGGGGSGGGGGSGGGGGSEVQLVESGGGLVQPGGSLRLSCAASGFTFNTYAMNWVRQAPGKCLEWVARIRSKYNNYATYYADSVKGRFTISRDDAKNTLYLQMSSLRAEDTAVYYCVRHGNFGNSYVSWFAYWGQGTLVTVKPEVQLQESGGGLVQAGGSLRLSCGPSEIITSDKSVGWWRQAPGKQRNLVAGISNVGSTNYAQSVKGRFTISRDNAKNTLFLQMNSLKPEDTAVYYCYARDFENEYWGRGTQVTVKP chain 2: DKTHTCPPCPAPGGPSVFLFPPKPKDTLMISRTPEVTCVVVDVSHEDPEVKFNWYVDGVEVHNAKTKPREEQYNSTYRVVSVLTVLHQDWLNGKEYKCKVSNKALPAPIEKTISKAKGQPREPQVCTLPPSRDELTKNQVSLSCAVKGFYPSDIAVEWESNGQPENNYKTTPPVLDSDGSFFLVSKLTVDKSRWQQGNVFSCSVMHEALHNRYTQKSLSLSPTGGGGGSGGGGGSGGGGGSQAVVTQEPSLTVSPGGTVTLTCGSSTGAVTTSNYANWVQQKPGQAFRGLIGGTNKRAPGVPARFSGSLLGGKAALTISGAQPEDEADYYCALWYSNHWVFGCGTKLEIKEVQLLESGGGEVQPGGSLRLSCAASGFSFSINAMGWYRQAPGKRREFVAAIESGRNTVYAESVKGRFTISRDNAKNTVYLQMSSLRAEDTAVYYCGLLKGNRVVSPSVAYWGQGTLVTVKP | > 200 nM | 0.115 nM
3 | cx4888 (bispecific antibody, also carries a 41BB sdAb) chain 1: EVQLVESGGGEVQPGGSLRLSCAASGSIFSINAMGWYRQAPGKQRELVAGFTGDTNTIYAESVKGRFTISRDNAKNTVYLQMSSLRAEDTAVYYCAADVQLFSRDYEFYWGQGTLVTVKPDKTHTCPPCPAPGGPSVFLFPPKPKDTLMISRTPEVTCVVVDVSHEDPEVKFNWYVDGVEVHNAKTKPREEQYNSTYRVVSVLTVLHQDWLNGKEYKCKVSNKALPAPIEKTISKAKGQPREPQVYTLPPCRDELTKNQVSLWCLVKGFYPSDIAVEWESNGQPENNYKTTPPVLDSDGSFFLYSKLTVDKSRWQQGNVFSCSVMHEALHNHYTQKSLSLSPTGGGGGSGGGGGSGGGGGSEVQLVESGGGLVQPGGSLRLSCAASGFTFNTYAMNWVRQAPGKCLEWVARIRSKYNNYATYYADSVKGRFTISRDDAKNTLYLQMSSLRAEDTAVYYCVRHGNFGNSYVSWFAYWGQGTLVTVKPEVQLVESGGGEVQPGGSLRLSCAASEIITSDKSVGWWRQAPGKQRNLVAGISNVGSTNYAQSVKGRFTISRDNAKNTLFLQMSSLRAEDTAVYYCYARDFENEYWGQGTLVTVKP chain 2: DKTHTCPPCPAPGGPSVFLFPPKPKDTLMISRTPEVTCVVVDVSHEDPEVKFNWYVDGVEVHNAKTKPREEQYNSTYRVVSVLTVLHQDWLNGKEYKCKVSNKALPAPIEKTISKAKGQPREPQVCTLPPSRDELTKNQVSLSCAVKGFYPSDIAVEWESNGQPENNYKTTPPVLDSDGSFFLVSKLTVDKSRWQQGNVFSCSVMHEALHNRYTQKSLSLSPTGGGGGSGGGGGSGGGGGSQAVVTQEPSLTVSPGGTVTLTCGSSTGAVTTSNYANWVQQKPGQAFRGLIGGTNKRAPGVPARFSGSLLGGKAALTISGAQPEDEADYYCALWYSNHWVFGCGTKLEIKEVQLLESGGGEVQPGGSLRLSCAASGFSFSINAMGWYRQAPGKRREFVAAIESGRNTVYAESVKGRFTISRDNAKNTVYLQMSSLRAEDTAVYYCGLLKGNRVVSPSVAYWGQGTLVTVKP | > 200 nM | 0.134 nM
4 | cx4890 (bispecific antibody) chain 1: EVQLVQSGGGLVQAGGSLRLSCAASGSILSINAMGWYRQPPGKQREMVAGFTGDGNTIYADSVKGRFTISRDNAKNTVYLQMNSLKPEDTAVYYCAADVQLFSRDYEFYWGQGTQVTVKPDKTHTCPPCPAPGGPSVFLFPPKPKDTLMISRTPEVTCVVVDVSHEDPEVKFNWYVDGVEVHNAKTKPREEQYNSTYRVVSVLTVLHQDWLNGKEYKCKVSNKALPAPIEKTISKAKGQPREPQVYTLPPCRDELTKNQVSLWCLVKGFYPSDIAVEWESNGQPENNYKTTPPVLDSDGSFFLYSKLTVDKSRWQQGNVFSCSVMHEALHNHYTQKSLSLSPTGGGGGSGGGGGSGGGGGSEVQLVESGGGLVQPGGSLRLSCAASGFTFNTYAMNWVRQAPGKCLEWVARIRSKYNNYATYYADSVKGRFTISRDDAKNTLYLQMSSLRAEDTAVYYCVRHGNFGNSYVSWFAYWGQGTLVTVKPEVQLQESGGGLVQAGGSLRLSCGPSEIITSDKSVGWWRQAPGKQRNLVAGISNVGSTNYAQSVKGRFTISRDNAKNTLFLQMNSLKPEDTAVYYCYARDFENEYWGRGTQVTVKP chain 2: DKTHTCPPCPAPGGPSVFLFPPKPKDTLMISRTPEVTCVVVDVSHEDPEVKFNWYVDGVEVHNAKTKPREEQYNSTYRVVSVLTVLHQDWLNGKEYKCKVSNKALPAPIEKTISKAKGQPREPQVCTLPPSRDELTKNQVSLSCAVKGFYPSDIAVEWESNGQPENNYKTTPPVLDSDGSFFLVSKLTVDKSRWQQGNVFSCSVMHEALHNRYTQKSLSLSPTGGGGGSGGGGGSGGGGGSQAVVTQEPSLTVSPGGTVTLTCGSSTGAVTTSNYANWVQQKPGQAFRGLIGGTNKRAPGVPARFSGSLLGGKAALTISGAQPEDEADYYCALWYSNHWVFGCGTKLEIK | > 200 nM | 0.062 nM
